Numbered stars: 1 amine (or outer) side, 2 acyl side, 3 side chain; on linkers, the order of the positions; unused ones are H or OH. Bridge positions count the residues as written; N and C are the ends. Square brackets hold non-standard residues; d marks the D form. Ends that are not written are not given here. * marks the point of attachment. (N-Benzyl)D = (2S)-2-Amino-4-(benzylamino)-4-oxobutanecarboxylic acid, O=C(C[C@H](N[*:1])C(=O)[*:2])NCc1ccccc1; βDap = *Dap: Dap linked through its additional amino group, O=C([C@H](CN[*:1])N[*:3])[*:2]; X3 = (1R,3S)‑3‑(Amino)cyclopentanecarboxylic acid, O=C([C@@H]1CC[C@H](N[*:1])C1)[*:2]; X4 = (1S,3R)‑3‑(Amino)cyclopentanecarboxylic acid, O=C([C@H]1CC[C@@H](N[*:1])C1)[*:2]; X9 = (S)‑3‑(1-Pyrrolidine-2-yl)‑propionic acid, O=C(CC[C@@H]1CCCN1[*:1])[*:2]; X8 = (R)‑4‑Amino‑6‑methylheptanoic acid, CC(C)C[C@@H](CCC(=O)[*:2])N[*:1]; X6 = (S)‑(1-Piperidin-3-yl)‑acetic acid, O=C(C[C@@H]1CCCN([*:1])C1)[*:2]; X11 = (S)‑Piperidine‑3‑carboxylic acid, O=C([C@H]1CCCN([*:1])C1)[*:2]; X14 = (2,4-dioxoimidazolidin-1-yl)acetic acid, O=C1CN(CC(=O)*)C(=O)N1; Nip(3R) = O=C([C@@H]1CCCN([*:1])C1)[*:2]; Oic = O=C(O)[C@@H]1C[C@@H]2CCCC[C@@H]2N1; βPro(3S) = O=C([C@H]1CCN([*:1])C1)[*:2]; tBuAla = CC(C)(C)C[C@H](N)C(=O)O; Pen = CC(C)(S)[C@H](N)C(=O)O; β3hP = O=C(O)C[C@@H]1CCCN1; NMeA = CN[C@@H](C)C(=O)O; Nva = CCC[C@H](N)C(=O)O; Sar = CNCC(=O)O
T1: recombinant rat MASP1 active protease (amino acids 302-704, C-terminal His Tag) (rat, UniProt Q8CHN8 302-704)
T1 sequence: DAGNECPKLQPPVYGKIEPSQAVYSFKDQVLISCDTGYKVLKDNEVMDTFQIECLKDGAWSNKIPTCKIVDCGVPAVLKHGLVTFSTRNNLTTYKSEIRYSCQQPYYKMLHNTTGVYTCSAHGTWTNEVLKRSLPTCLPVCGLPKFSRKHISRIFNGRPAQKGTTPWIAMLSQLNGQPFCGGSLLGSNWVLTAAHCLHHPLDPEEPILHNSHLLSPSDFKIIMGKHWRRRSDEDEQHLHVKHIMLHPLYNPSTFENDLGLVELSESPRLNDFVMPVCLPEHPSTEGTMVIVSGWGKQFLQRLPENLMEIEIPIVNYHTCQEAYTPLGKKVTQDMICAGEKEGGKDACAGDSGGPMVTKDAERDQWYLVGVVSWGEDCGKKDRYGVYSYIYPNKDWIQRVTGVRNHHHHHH


Experiments:
[1] = molecular target: recombinant rat MASP2 active protease (amino acids 296-685, C-terminal His Tag) (rat, UniProt Q9JJS8 296-685); test: cell-based or functional assay
Sequence of recombinant rat MASP2 active protease (amino acids 296-685, C-terminal His Tag) (Q9JJS8 other isoform, or with tags, fused parts or gaps limits assumed): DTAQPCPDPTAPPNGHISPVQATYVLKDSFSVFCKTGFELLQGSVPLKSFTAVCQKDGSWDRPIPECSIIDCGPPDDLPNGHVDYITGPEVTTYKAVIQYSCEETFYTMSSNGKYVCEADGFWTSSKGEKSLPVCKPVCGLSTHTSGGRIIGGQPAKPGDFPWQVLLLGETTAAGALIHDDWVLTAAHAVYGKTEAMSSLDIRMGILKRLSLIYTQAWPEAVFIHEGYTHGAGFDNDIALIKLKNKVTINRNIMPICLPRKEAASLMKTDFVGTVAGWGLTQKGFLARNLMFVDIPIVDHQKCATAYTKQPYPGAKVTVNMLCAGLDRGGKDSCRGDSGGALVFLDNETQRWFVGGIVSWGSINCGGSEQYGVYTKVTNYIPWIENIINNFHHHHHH

[2] = molecular target: T1, recombinant rat MASP1 active protease …; test: cell-based or functional assay

Row | Binder | rat MASP2 IC50 [1] [nM] | rat MASP1 IC50 [2] [nM]
1 | [Sar]ICSRSLP[Oic]I[Pen]IP[β3hP]-OH (disulfide 3-11; N-terminus assumed; SMILES CC[C@H](C)[C@H](NC(=O)CNC)C(=O)N[C@H]1CSSC(C)(C)[C@@H](C(=O)N[C@H](C(=O)N2CCC[C@H]2C(=O)N2CCC[C@H]2CC(=O)O)[C@@H](C)CC)NC(=O)[C@H]([C@@H](C)CC)NC(=O)[C@@H]2C[C@@H]3CCCC[C@@H]3N2C(=O)[C@@H]2CCCN2C(=O)[C@H](CC(C)C)NC(=O)[C@H](CO)NC(=O)[C@H](CCCNC(=N)N)NC(=O)[C@H](CO)NC1=O) [Example 455: ((N-Me)G)-IC+SRSLP-(Oic)-I-(Pen)+IP-(beta-homo-P)-OH] | 32 | 41
2 | [Sar]ICSRSLP[Oic]I[Pen]IPN-OH (disulfide 3-11; N-terminus assumed; SMILES CC[C@H](C)[C@H](NC(=O)CNC)C(=O)N[C@H]1CSSC(C)(C)[C@@H](C(=O)N[C@H](C(=O)N2CCC[C@H]2C(=O)N[C@@H](CC(N)=O)C(=O)O)[C@@H](C)CC)NC(=O)[C@H]([C@@H](C)CC)NC(=O)[C@@H]2C[C@@H]3CCCC[C@@H]3N2C(=O)[C@@H]2CCCN2C(=O)[C@H](CC(C)C)NC(=O)[C@H](CO)NC(=O)[C@H](CCCNC(=N)N)NC(=O)[C@H](CO)NC1=O) [Example 454: ((N-Me)G)-IC+SRSLP-(Oic)-I-(Pen)+IPN-OH] | 79 | 127
3 | [Nip(3R)]ICSRSLP[Oic]I[Pen]I-OH (disulfide 3-11; N-terminus assumed; SMILES CC[C@H](C)[C@H](NC(=O)[C@H]1NC(=O)[C@H]([C@@H](C)CC)NC(=O)[C@@H]2C[C@@H]3CCCC[C@@H]3N2C(=O)[C@@H]2CCCN2C(=O)[C@H](CC(C)C)NC(=O)[C@H](CO)NC(=O)[C@H](CCCNC(=N)N)NC(=O)[C@H](CO)NC(=O)[C@@H](NC(=O)[C@@H](NC(=O)[C@@H]2CCCNC2)[C@@H](C)CC)CSSC1(C)C)C(=O)O) [Example 459: ((R)-Piperidine-3-carboxylic acid)-IC+SRSLP-(Oic)-I-(Pen)+I-OH] | 51 | 180
4 | [Sar]ICSRSLP[Oic]I[Pen]IP[X8]-OH (disulfide 3-11; N-terminus assumed; SMILES CC[C@H](C)[C@H](NC(=O)CNC)C(=O)N[C@H]1CSSC(C)(C)[C@@H](C(=O)N[C@H](C(=O)N2CCC[C@H]2C(=O)N[C@H](CCC(=O)O)CC(C)C)[C@@H](C)CC)NC(=O)[C@H]([C@@H](C)CC)NC(=O)[C@@H]2C[C@@H]3CCCC[C@@H]3N2C(=O)[C@@H]2CCCN2C(=O)[C@H](CC(C)C)NC(=O)[C@H](CO)NC(=O)[C@H](CCCNC(=N)N)NC(=O)[C@H](CO)NC1=O) [Example 450: ((N-Me)G)-IC+SRSLP-(Oic)-I-(Pen)+IP-((R)-4-Amino-6-methylheptanoic acid)-OH] | 52 | 31
5 | [Sar]ICSRSLP[Oic]I[Pen]IP[X9]-OH (disulfide 3-11; N-terminus assumed; SMILES CC[C@H](C)[C@H](NC(=O)CNC)C(=O)N[C@H]1CSSC(C)(C)[C@@H](C(=O)N[C@H](C(=O)N2CCC[C@H]2C(=O)N2CCC[C@H]2CCC(=O)O)[C@@H](C)CC)NC(=O)[C@H]([C@@H](C)CC)NC(=O)[C@@H]2C[C@@H]3CCCC[C@@H]3N2C(=O)[C@@H]2CCCN2C(=O)[C@H](CC(C)C)NC(=O)[C@H](CO)NC(=O)[C@H](CCCNC(=N)N)NC(=O)[C@H](CO)NC1=O) [Example 453: ((N-Me)G)-IC+SRSLP-(Oic)-I-(Pen)+IP-((S)-3-(1-Pyrrolidine-2-yl)-propionic acid)-OH] | 32 | 38
6 | [Sar]ICSRSLP[Oic]I[Pen]IP[X4]-OH (disulfide 3-11; N-terminus assumed; SMILES CC[C@H](C)[C@H](NC(=O)CNC)C(=O)N[C@H]1CSSC(C)(C)[C@@H](C(=O)N[C@H](C(=O)N2CCC[C@H]2C(=O)N[C@@H]2CC[C@H](C(=O)O)C2)[C@@H](C)CC)NC(=O)[C@H]([C@@H](C)CC)NC(=O)[C@@H]2C[C@@H]3CCCC[C@@H]3N2C(=O)[C@@H]2CCCN2C(=O)[C@H](CC(C)C)NC(=O)[C@H](CO)NC(=O)[C@H](CCCNC(=N)N)NC(=O)[C@H](CO)NC1=O) [Example 452: ((N-Me)G)-IC+SRSLP-(Oic)-I-(Pen)+IP-((1S,3R)-3-(Amino)cyclopentanecarboxylic acid)-OH] | 37 | 36
7 | [NMeA]ICSRSLP[Oic]I[Pen]IP[(N-Benzyl)D]-NH2 (disulfide 3-11) [Example 462: ((N-Me)A)-IC+SRSLP-(Oic)-I-(Pen)+IP-((N-Benzyl)D)-NH2] | 150 | 160
8 | X14-ICSRSLP[Oic]I[Pen]IPD-OH (disulfide 2-10; SMILES CC[C@H](C)[C@H](NC(=O)CN1CC(=O)NC1=O)C(=O)N[C@H]1CSSC(C)(C)[C@@H](C(=O)N[C@H](C(=O)N2CCC[C@H]2C(=O)N[C@@H](CC(=O)O)C(=O)O)[C@@H](C)CC)NC(=O)[C@H]([C@@H](C)CC)NC(=O)[C@@H]2C[C@@H]3CCCC[C@@H]3N2C(=O)[C@@H]2CCCN2C(=O)[C@H](CC(C)C)NC(=O)[C@H](CO)NC(=O)[C@H](CCCNC(=N)N)NC(=O)[C@H](CO)NC1=O) [Example 457: ((2,4-dioxoimidazolidin-1-yl)acetic acid)-IC+SRSLP-(Oic)-I-(Pen)+IPD-OH] | 5 | 20
9 | AICSRSLP[Oic]I[Pen]IP[βDap]-OH (disulfide 3-11; also: Dap at position 14 joined through its 3-amino group) [Example 458: AIC+SRSLP-(Oic)-I-(Pen)+IP-(*Dap)-OH] | 100 | 250
10 | [Sar]ICSRSLP[Oic]I[Pen]IP[βPro(3S)]-OH (disulfide 3-11; N-terminus assumed; SMILES CC[C@H](C)[C@H](NC(=O)CNC)C(=O)N[C@H]1CSSC(C)(C)[C@@H](C(=O)N[C@H](C(=O)N2CCC[C@H]2C(=O)N2CC[C@H](C(=O)O)C2)[C@@H](C)CC)NC(=O)[C@H]([C@@H](C)CC)NC(=O)[C@@H]2C[C@@H]3CCCC[C@@H]3N2C(=O)[C@@H]2CCCN2C(=O)[C@H](CC(C)C)NC(=O)[C@H](CO)NC(=O)[C@H](CCCNC(=N)N)NC(=O)[C@H](CO)NC1=O) [Example 456: ((N-Me)G)-IC+SRSLP-(Oic)-I-(Pen)+IP-((S)-Pyrrolidine-3-carboxylic acid)-OH] | 30 | 39
11 | [Sar]ICSRSLP[Oic]I[Pen]IP[X3]-OH (disulfide 3-11; N-terminus assumed; SMILES CC[C@H](C)[C@H](NC(=O)CNC)C(=O)N[C@H]1CSSC(C)(C)[C@@H](C(=O)N[C@H](C(=O)N2CCC[C@H]2C(=O)N[C@H]2CC[C@@H](C(=O)O)C2)[C@@H](C)CC)NC(=O)[C@H]([C@@H](C)CC)NC(=O)[C@@H]2C[C@@H]3CCCC[C@@H]3N2C(=O)[C@@H]2CCCN2C(=O)[C@H](CC(C)C)NC(=O)[C@H](CO)NC(=O)[C@H](CCCNC(=N)N)NC(=O)[C@H](CO)NC1=O) [Example 449: ((N-Me)G)-IC+SRSLP-(Oic)-I-(Pen)+IP-((1R,3S)-3-(Amino)cyclopentanecarboxylic acid)-OH] | 44.5 | 45
12 | [X11]ICSRSLP[Oic]I[Pen]I-OH (disulfide 3-11; N-terminus assumed; SMILES CC[C@H](C)[C@H](NC(=O)[C@H]1NC(=O)[C@H]([C@@H](C)CC)NC(=O)[C@@H]2C[C@@H]3CCCC[C@@H]3N2C(=O)[C@@H]2CCCN2C(=O)[C@H](CC(C)C)NC(=O)[C@H](CO)NC(=O)[C@H](CCCNC(=N)N)NC(=O)[C@H](CO)NC(=O)[C@@H](NC(=O)[C@@H](NC(=O)[C@H]2CCCNC2)[C@@H](C)CC)CSSC1(C)C)C(=O)O) [Example 460: ((S)-Piperidine-3-carboxylic acid)-IC+SRSLP-(Oic)-I-(Pen)+I-OH] | 69 | 210
13 | [Sar]ICRRS[tBuAla]PP[Nva][Pen]IP-NH2 (disulfide 3-11; N-terminus assumed; SMILES CCC[C@@H]1NC(=O)[C@@H]2CCCN2C(=O)[C@@H]2CCCN2C(=O)[C@H](CC(C)(C)C)NC(=O)[C@H](CO)NC(=O)[C@H](CCCNC(=N)N)NC(=O)[C@H](CCCNC(=N)N)NC(=O)[C@@H](NC(=O)[C@@H](NC(=O)CNC)[C@@H](C)CC)CSSC(C)(C)[C@@H](C(=O)N[C@H](C(=O)N2CCC[C@H]2C(N)=O)[C@@H](C)CC)NC1=O) [Example 448: ((N-Me)G)-IC+RRS-((tBu)A)-PP-(Nva)-(Pen)+IP-NH2] | 5000 | 5000
14 | [Sar]ICSRSLP[Oic]I[Pen]IP[X6]-OH (disulfide 3-11; N-terminus assumed; SMILES CC[C@H](C)[C@H](NC(=O)CNC)C(=O)N[C@H]1CSSC(C)(C)[C@@H](C(=O)N[C@H](C(=O)N2CCC[C@H]2C(=O)N2CCC[C@@H](CC(=O)O)C2)[C@@H](C)CC)NC(=O)[C@H]([C@@H](C)CC)NC(=O)[C@@H]2C[C@@H]3CCCC[C@@H]3N2C(=O)[C@@H]2CCCN2C(=O)[C@H](CC(C)C)NC(=O)[C@H](CO)NC(=O)[C@H](CCCNC(=N)N)NC(=O)[C@H](CO)NC1=O) [Example 451: ((N-Me)G)-IC+SRSLP-(Oic)-I-(Pen)+IP-((S)-(1-Piperidin-3-yl)-acetic acid)-OH] | 46 | 46

From patent US20210246166A1 (Bayer, published 2021)
